Substitutions are numbered along the chain they refer to.
Tests used:
Experiment in all cases: EMSA
Conditions in all cases: EMSA: DIG gel shift kit (Roche) conditions, 0.04 ng DNA, native 6% PAGE in 0.5x TBE; SPR: HBS-EP running buffer, 25 °C, BIAcoreX, nonspecific 30-mer DNA in the …
[1] = molecular target: T1, AmtR-MBP Y58A Y58A (Corynebacterium glutamicum ATCC13032) (UniProt H7C699)
T1 sequence: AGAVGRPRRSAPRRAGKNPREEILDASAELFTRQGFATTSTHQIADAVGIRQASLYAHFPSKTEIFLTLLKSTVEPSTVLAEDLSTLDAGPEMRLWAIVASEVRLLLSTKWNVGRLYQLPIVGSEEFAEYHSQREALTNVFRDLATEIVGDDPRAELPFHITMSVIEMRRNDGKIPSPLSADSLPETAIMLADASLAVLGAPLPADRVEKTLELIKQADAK

[2] = molecular target: T2, AmtR-MBP Y57A Y57A (Corynebacterium glutamicum ATCC13032) (UniProt H7C699)
T2 sequence: T1 sequence with Y56A, A57Y

[3] = molecular target: T3, AmtR-MBP T42A T42A (Corynebacterium glutamicum ATCC13032) (UniProt H7C699)
T3 sequence: T1 sequence with T41A, A57Y

[4] = molecular target: T4, AmtR-MBP S55A S55A (Corynebacterium glutamicum ATCC13032) (UniProt H7C699)
T4 sequence: T1 sequence with S54A, A57Y

[5] = tested on: AmtR-MBP E30A (Corynebacterium glutamicum ATCC13032)
[6] = tested on: AmtR-MBP L71A (Corynebacterium glutamicum ATCC13032)
[7] = tested on: AmtR-MBP T33A (Corynebacterium glutamicum ATCC13032)

In the case of “GCTGGGCTAGAAACCCGATAAGCGAGAACCACCTGTCGGATGTTGTCTGGCAGGTGGTTTTCTTTTGCCTGGGTACCACCAAAAAGCAGCTGTGATGCACTTAACAATTCATTAAATTACCTGTTAAACTATAGAAAATATCCAAAACCCTCCAAAACCTATTCTATAGATCTATTGAAATTAGTTTCTGTAGGTCTATAGTTAGAGCTGGTTCAAGGGGTGTCAATCCCAAAAGGCACTCCTTGAACTCATGAAAAAGCTTGACAAAACTTCAACGTCAAAGGAGGTCATCCACGC (double strand) [amtB promoter PCR fragment]”, the binding [1] is reported as “binds more weakly”, the binding [2] is reported as “binds more weakly” and the binding [3] is reported as “binds”. It also gave a Kd [4] of 71 µM.

Work on amtB promoter PCR fragment yielded a Kd [5] of 10 µM, a Kd [6] of 20 µM and a Kd [7] of 2.2 µM. The Kd [4] was 71 µM.

Source: PMC2723105, “DNA binding by Corynebacterium glutamicum TetR-type transcription regulator AmtR”
